In patent publication US20150037348A1:

Experiments:
[1] = target: recombinant murine IL-12 (mouse) (UniProt P43431); test: cell-based or functional assay
[2] = target: recombinant murine IL-12 (mouse) (UniProt P43431); test: receptor binding assay, 125I-murine IL-12 on 2D6 cells
[3] = target: recombinant murine IL-12 (mouse) (UniProt P43431); test: biomolecular interaction assay, C17.15 captured via goat anti-rat IgG, murine IL-12 in solution
[4] = target: recombinant rhesus IL-12 (rhesus monkey) (UniProt P48091); test: cell-based or functional assay
[5] = target: baboon IL-12 (PBMC supernatant) (baboon); test: cell-based or functional assay
[6] = target: cynomolgus IL-12 (PBMC supernatant) (cynomolgus monkey); test: cell-based or functional assay
[7] = target: recombinant human IL-12 (rhIL-12) (human) (UniProt P29459); test: cell-based or functional assay
recombinant human IL-12 (rhIL-12) (human), sequence (P29459 23-219, chain 1 of 2): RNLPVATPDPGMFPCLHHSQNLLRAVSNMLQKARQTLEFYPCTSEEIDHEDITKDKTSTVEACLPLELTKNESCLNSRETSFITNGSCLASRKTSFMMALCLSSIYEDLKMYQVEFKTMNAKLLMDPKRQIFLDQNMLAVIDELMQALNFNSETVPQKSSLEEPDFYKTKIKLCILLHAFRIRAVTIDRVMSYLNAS
recombinant human IL-12 (rhIL-12) (human), sequence (P29460 23-328, chain 2 of 2, further chain): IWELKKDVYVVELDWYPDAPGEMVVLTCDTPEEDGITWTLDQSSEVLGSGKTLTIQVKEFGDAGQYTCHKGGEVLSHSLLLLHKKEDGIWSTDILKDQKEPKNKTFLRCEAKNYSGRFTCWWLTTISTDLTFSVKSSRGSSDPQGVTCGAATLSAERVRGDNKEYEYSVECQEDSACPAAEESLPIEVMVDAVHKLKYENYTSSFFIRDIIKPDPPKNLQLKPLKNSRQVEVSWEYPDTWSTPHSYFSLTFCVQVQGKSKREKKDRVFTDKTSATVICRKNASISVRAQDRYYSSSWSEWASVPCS

recombinant murine IL-12 (mouse), sequence (P43431 23-215, chain 1 of 2): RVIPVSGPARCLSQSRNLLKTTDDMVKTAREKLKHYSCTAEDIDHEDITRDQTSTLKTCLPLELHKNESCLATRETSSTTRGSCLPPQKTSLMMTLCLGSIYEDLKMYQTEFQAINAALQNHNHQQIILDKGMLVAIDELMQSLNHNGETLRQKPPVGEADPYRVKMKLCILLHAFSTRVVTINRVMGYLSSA
recombinant murine IL-12 (mouse), sequence (P43432 23-335, chain 2 of 2, further chain): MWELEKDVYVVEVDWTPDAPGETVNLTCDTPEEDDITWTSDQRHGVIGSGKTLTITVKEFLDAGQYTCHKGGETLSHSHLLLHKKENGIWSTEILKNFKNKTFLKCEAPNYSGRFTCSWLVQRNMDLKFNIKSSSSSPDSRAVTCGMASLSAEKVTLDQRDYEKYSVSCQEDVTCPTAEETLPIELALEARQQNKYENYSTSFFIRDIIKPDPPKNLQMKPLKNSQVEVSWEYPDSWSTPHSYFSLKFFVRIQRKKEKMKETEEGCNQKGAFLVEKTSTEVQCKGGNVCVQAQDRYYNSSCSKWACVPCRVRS
recombinant rhesus IL-12 (rhesus monkey), sequence (P48091 23-219, chain 1 of 2): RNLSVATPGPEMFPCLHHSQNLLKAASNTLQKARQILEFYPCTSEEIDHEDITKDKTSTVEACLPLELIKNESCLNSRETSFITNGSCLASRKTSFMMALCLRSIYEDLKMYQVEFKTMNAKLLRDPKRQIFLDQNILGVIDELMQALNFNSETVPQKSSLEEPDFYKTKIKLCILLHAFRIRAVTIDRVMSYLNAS
recombinant rhesus IL-12 (rhesus monkey), sequence (P48095 23-328, chain 2 of 2, further chain): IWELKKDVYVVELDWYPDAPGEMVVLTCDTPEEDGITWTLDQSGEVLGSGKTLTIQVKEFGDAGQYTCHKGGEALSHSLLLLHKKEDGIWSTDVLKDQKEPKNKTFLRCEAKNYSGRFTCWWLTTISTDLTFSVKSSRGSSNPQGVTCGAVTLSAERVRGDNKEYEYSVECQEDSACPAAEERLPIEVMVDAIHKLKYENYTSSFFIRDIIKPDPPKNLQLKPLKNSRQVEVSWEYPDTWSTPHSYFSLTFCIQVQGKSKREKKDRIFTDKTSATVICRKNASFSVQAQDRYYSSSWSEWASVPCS

Row | IC50 (M), bioassay, Mouse IL-12 Purified [1] | PHA blast IC50 [1] | IC50 [2] | Kd [3] | koff [3] | kon [3] | IC50 (M), bioassay, Rhesus IL-12 Purified [4] | IC50 (M), bioassay, Baboon IL-12 PBMC sup [5] | IC50 (M), bioassay, Cyno IL-12 PBMC sup [6] | IC50 (M), bioassay, Human IL-12 Purified [7] | Substance
1 | 3e-11 M | 0.014 nM | 0.15 nM | 0.48 nM | 0.000184 s⁻¹ | 380000 M⁻¹ s⁻¹ |  |  |  |  | C17.15 (antibody)
2 |  |  |  |  |  |  | 1e-10 M | 2e-10 M | 1.2e-10 M | 5e-11 M | C8.6.2 (antibody)
